# Assay results reported in article PMC3893830, “Manipulating Conserved Heme Cavity Residues of Chlorite Dismutase: Effect on Structure, Redox Chemistry, and Reactivity” (Biochemistry, 2013).
# B1: NdCld (Nitrospira defluvii; E236A/R199Q) (protein)
# chain: ADREKLLTESGVYGTFATFQMDHDWWDLPGESRVISVAEVKGLVEQWSGKILVESYLLRGLSDHADLMFRVHARTLSDTQQFLSAFMGTRLGRHLTSGGLLHGVSKKPTYVAGFPESMKTELQVNGESGSRPYAIVIPIKKDAEWWALDQEARTALMQEHTQAALPYLKTVKQKLYHSTGLDDVDFITYFETERLEDFHNLVRALQQVKAFRHNRRFGHPTLLGTMSPLDEILEKFAQ
# notes: N-terminal TEV-cleavable Strep-II tag, N-terminal signal peptide removed; expressed in E. coli Tuner (DE3), StrepTrap purified; homopentamer with heme b
# Substrate: [O-][Cl+]O
# Experiment: O2 release, Clark-type oxygen electrode
# Type: biochemical, Nitrospira defluvii
# Settings: 50 mM phosphate pH 7.0, 30 °C, O2-free buffer, low heme occupancy
# Excerpt: O2 release, Clark-type oxygen electrode on NdCld
protein,measurement,value
B1,Km,184 ± 36 µM
same,kcat,0.9 s⁻¹
same,kcat/Km,4600 M⁻¹ s⁻¹
